Substrate in data set [1]: NC(CCC(=O)NC(CSCCN(CCCl)c1ccc(CCCC(=O)O)cc1)C(=O)NCC(=O)O)C(=O)O
As to the kind of experiment: TP_TRANSPORTER: uptake in membrane vesicle from MCF/VP cells. Type of data set: functional, cell membranes.

Substrate in data set [2]: NC(Cc1ccc(N(CCCl)CCSC[C@H](NC(=O)CC[C@H](N)C(=O)O)C(=O)NCC(=O)O)cc1)C(=O)O
The data set is described as follows: TP_TRANSPORTER: uptake in membrane vesicle from MCF7/VP cells. The format is functional, cell membranes.

B1: Multidrug resistance-associated protein 1 (Homo sapiens) (protein)
chain: MALRGFCSADGSDPLWDWNVTWNTSNPDFTKCFQNTVLVWVPCFYLWACFPFYFLYLSRHDRGYIQMTPLNKTKTALGFLLWIVCWADLFYSFWERSRGIFLAPVFLVSPTLLGITMLLATFLIQLERRKGVQSSGIMLTFWLVALVCALAILRSKIMTALKEDAQVDLFRDITFYVYFSLLLIQLVLSCFSDRSPLFSETIHDPNPCPESSASFLSRITFWWITGLIVRGYRQPLEGSDLWSLNKEDTSEQVVPVLVKNWKKECAKTRKQPVKVVYSSKDPAQPKESSKVDANEEVEALIVKSPQKEWNPSLFKVLYKTFGPYFLMSFFFKAIHDLMMFSGPQILKLLIKFVNDTKAPDWQGYFYTVLLFVTACLQTLVLHQYFHICFVSGMRIKTAVIGAVYRKALVITNSARKSSTVGEIVNLMSVDAQRFMDLATYINMIWSAPLQVILALYLLWLNLGPSVLAGVAVMVLMVPVNAVMAMKTKTYQVAHMKSKDNRIKLMNEILNGIKVLKLYAWELAFKDKVLAIRQEELKVLKKSAYLSAVGTFTWVCTPFLVALCTFAVYVTIDENNILDAQTAFVSLALFNILRFPLNILPMVISSIVQASVSLKRLRIFLSHEELEPDSIERRPVKDGGGTNSITVRNATFTWARSDPPTLNGITFSIPEGALVAVVGQVGCGKSSLLSALLAEMDKVEGHVAIKGSVAYVPQQAWIQNDSLRENILFGCQLEEPYYRSVIQACALLPDLEILPSGDRTEIGEKGVNLSGGQKQRVSLARAVYSNADIYLFDDPLSAVDAHVGKHIFENVIGPKGMLKNKTRILVTHSMSYLPQVDVIIVMSGGKISEMGSYQELLARDGAFAEFLRTYASTEQEQDAEENGVTGVSGPGKEAKQMENGMLVTDSAGKQLQRQLSSSSSYSGDISRHHNSTAELQKAEAKKEETWKLMEADKAQTGQVKLSVYWDYMKAIGLFISFLSIFLFMCNHVSALASNYWLSLWTDDPIVNGTQEHTKVRLSVYGALGISQGIAVFGYSMAVSIGGILASRCLHVDLLHSILRSPMSFFERTPSGNLVNRFSKELDTVDSMIPEVIKMFMGSLFNVIGACIVILLATPIAAIIIPPLGLIYFFVQRFYVASSRQLKRLESVSRSPVYSHFNETLLGVSVIRAFEEQERFIHQSDLKVDENQKAYYPSIVANRWLAVRLECVGNCIVLFAALFAVISRHSLSAGLVGLSVSYSLQVTTYLNWLVRMSSEMETNIVAVERLKEYSETEKEAPWQIQETAPPSSWPQVGRVEFRNYCLRYREDLDFVLRHINVTINGGEKVGIVGRTGAGKSSLTLGLFRINESAEGEIIIDGINIAKIGLHDLRFKITIIPQDPVLFSGSLRMNLDPFSQYSDEEVWTSLELAHLKDFVSALPDKLDHECAEGGENLSVGQRQLVCLARALLRKTKILVLDEATAAVDLETDDLIQSTIRTQFEDCTVLTIAHRLNTIMDYTRVIVLDKGEIQEYGAPSDLLQQRGLFYSMAKDAGLV
In the case of B1, the Km in data set [1] is 0.37 µM; in data set [2] it was 1.14 µM.

For orientation: Km means the concentration of substrate that gives half-maximal velocity.

These data come from ChEMBL document CHEMBL2074453, “Role of multidrug resistance protein 1 (MRP1) and glutathione S-transferase A1-1 in alkylating agent resistance. Kinetics of glutathione conjugate formation and efflux govern differential cellular sensitivity to chlorambucil versus melphalan toxicity” (J Biol Chem, 2001).
